Assay results as given in paper PMC3711130.
Like-named read-outs stand apart in the source and are kept apart here.

Experiments:
[1] = target: His-Tm (wild-type α-tropomyosin homodimer with a histidine tag) (rat); experiment: cross-linking
[2] = target: pyr-actin·D175N-Tm·hcTn thin filament (rabbit | rat | human) (UniProt P68135); experiment: stopped-flow fluorescence
[3] = target: pyr-actin·E180G-Tm·hcTn thin filament (rabbit | rat | human) (UniProt P68135); experiment: stopped-flow fluorescence
[4] = target: pyr-actin·WT-D175N-Tm·hcTn thin filament (rabbit | rat | human) (UniProt P68135); experiment: stopped-flow fluorescence
[5] = target: pyr-actin·WT-E180G-Tm·hcTn thin filament (rabbit | rat | human) (UniProt P68135); experiment: stopped-flow fluorescence
[6] = target: pyr-actin·WT-Tm·hcTn thin filament (rabbit | rat | human) (UniProt P68135); experiment: stopped-flow fluorescence
[7] = target: pyr-actin·WT-Tm·hcTn thin filament (rabbit | rat | human) (UniProt P68135); experiment: stopped-flow fluorescence; remark: listed apart in the source

myosin subfragment 1 (native rabbit skeletal) (domain or fragment), sequence (Q28641 whole entry, the tested form may be a part): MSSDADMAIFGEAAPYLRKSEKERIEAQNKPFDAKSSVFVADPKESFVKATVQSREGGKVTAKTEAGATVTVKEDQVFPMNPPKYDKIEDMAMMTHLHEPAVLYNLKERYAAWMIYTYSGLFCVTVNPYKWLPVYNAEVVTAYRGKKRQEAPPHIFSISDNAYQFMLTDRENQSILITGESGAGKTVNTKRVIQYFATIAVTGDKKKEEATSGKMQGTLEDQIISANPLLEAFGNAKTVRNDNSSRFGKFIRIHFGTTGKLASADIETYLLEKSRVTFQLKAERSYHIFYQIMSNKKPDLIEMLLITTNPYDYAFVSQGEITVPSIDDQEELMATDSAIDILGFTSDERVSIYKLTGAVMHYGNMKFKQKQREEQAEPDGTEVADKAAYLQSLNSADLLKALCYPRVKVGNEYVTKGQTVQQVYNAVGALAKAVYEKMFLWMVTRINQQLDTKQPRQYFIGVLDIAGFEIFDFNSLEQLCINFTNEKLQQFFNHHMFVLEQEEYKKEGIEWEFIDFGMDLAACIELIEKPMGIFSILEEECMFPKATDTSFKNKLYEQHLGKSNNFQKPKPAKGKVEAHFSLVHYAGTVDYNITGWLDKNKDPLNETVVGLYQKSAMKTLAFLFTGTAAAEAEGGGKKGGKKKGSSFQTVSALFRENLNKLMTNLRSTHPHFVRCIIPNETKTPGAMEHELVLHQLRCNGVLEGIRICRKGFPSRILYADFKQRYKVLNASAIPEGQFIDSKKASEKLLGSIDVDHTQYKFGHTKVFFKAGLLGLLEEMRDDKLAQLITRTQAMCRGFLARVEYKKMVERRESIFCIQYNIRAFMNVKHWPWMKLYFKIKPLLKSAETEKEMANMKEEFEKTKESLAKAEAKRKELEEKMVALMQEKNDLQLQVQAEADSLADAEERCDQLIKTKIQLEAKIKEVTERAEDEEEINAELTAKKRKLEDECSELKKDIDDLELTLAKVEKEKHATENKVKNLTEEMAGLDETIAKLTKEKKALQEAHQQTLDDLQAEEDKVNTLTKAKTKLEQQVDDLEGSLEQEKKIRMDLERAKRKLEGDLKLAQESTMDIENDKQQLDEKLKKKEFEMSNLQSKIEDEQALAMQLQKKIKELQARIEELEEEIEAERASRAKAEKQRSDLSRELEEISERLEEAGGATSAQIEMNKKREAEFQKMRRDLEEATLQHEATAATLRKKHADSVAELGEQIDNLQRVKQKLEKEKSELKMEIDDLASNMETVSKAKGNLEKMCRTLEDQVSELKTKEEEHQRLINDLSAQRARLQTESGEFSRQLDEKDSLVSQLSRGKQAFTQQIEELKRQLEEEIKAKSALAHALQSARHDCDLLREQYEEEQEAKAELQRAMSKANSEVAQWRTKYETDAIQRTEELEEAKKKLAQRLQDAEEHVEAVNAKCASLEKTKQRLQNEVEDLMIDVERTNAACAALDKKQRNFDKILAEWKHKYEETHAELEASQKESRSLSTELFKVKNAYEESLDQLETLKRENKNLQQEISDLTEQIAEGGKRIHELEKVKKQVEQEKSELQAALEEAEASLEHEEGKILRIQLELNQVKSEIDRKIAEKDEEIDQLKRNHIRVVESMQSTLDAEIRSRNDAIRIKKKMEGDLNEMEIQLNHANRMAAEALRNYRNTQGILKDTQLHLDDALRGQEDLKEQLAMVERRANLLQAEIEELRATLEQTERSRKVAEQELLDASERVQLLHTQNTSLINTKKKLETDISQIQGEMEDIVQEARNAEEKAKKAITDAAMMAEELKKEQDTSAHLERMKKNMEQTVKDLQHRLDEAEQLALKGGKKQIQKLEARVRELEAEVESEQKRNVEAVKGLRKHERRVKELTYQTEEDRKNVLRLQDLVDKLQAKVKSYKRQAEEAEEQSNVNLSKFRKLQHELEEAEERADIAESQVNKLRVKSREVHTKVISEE

stoichiometry N [1]	kobs with Ca2+ [2]	kobs without Ca2+ [2]	kobs with Ca2+ [3]	kobs without Ca2+ [3]	kobs with Ca2+ [4]	kobs without Ca2+ [4]	kobs with Ca2+ [5]	kobs without Ca2+ [5]	kobs with Ca2+ [6]	kobs without Ca2+ [6]	kobs with Ca2+ [7]	kobs without Ca2+ [7]	Substance
1													D175N-Tm (α-tropomyosin homodimer with the D175N mutation in both chains) (natural protein)
	8.48 s^–1	2.41 s^–1	8.46 s^–1	2.71 s^–1	8 s^–1	2.31 s^–1	7.58 s^–1	2.31 s^–1	7.68 s^–1	2.21 s^–1	7 s^–1	2 s^–1	myosin subfragment 1 (native rabbit skeletal) (domain or fragment)
